Data: PMC3708883

Tests used:
[1] = molecular target: β1 integrin (human (endogenous in peripheral blood monocytes)) (UniProt P05556)
[2] = molecular target: β3 integrin (human (endogenous in peripheral blood monocytes)) (UniProt P05106)
Sequence of β3 integrin (human (endogenous in peripheral blood monocytes)) (P05106 27-788): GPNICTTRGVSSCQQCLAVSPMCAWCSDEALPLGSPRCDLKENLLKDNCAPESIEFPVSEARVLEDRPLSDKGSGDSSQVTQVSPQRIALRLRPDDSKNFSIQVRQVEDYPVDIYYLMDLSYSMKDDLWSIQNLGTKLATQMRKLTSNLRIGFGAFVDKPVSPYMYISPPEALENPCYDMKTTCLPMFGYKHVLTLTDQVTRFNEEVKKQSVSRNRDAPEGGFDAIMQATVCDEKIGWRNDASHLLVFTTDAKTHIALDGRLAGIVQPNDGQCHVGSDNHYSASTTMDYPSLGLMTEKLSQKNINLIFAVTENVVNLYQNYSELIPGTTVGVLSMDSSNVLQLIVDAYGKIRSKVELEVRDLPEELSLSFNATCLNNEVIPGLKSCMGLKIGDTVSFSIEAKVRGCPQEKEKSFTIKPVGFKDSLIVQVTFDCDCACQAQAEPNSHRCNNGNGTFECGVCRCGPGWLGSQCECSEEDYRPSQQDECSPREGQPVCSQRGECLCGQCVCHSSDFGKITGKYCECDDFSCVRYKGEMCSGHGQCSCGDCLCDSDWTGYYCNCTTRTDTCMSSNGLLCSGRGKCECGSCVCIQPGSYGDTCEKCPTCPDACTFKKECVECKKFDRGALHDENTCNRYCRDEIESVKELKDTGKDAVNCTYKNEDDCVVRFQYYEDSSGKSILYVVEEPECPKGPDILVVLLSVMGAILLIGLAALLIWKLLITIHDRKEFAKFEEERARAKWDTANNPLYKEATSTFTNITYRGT

Sequence of β1 integrin (human (endogenous in peripheral blood monocytes)) (P05556 21-798): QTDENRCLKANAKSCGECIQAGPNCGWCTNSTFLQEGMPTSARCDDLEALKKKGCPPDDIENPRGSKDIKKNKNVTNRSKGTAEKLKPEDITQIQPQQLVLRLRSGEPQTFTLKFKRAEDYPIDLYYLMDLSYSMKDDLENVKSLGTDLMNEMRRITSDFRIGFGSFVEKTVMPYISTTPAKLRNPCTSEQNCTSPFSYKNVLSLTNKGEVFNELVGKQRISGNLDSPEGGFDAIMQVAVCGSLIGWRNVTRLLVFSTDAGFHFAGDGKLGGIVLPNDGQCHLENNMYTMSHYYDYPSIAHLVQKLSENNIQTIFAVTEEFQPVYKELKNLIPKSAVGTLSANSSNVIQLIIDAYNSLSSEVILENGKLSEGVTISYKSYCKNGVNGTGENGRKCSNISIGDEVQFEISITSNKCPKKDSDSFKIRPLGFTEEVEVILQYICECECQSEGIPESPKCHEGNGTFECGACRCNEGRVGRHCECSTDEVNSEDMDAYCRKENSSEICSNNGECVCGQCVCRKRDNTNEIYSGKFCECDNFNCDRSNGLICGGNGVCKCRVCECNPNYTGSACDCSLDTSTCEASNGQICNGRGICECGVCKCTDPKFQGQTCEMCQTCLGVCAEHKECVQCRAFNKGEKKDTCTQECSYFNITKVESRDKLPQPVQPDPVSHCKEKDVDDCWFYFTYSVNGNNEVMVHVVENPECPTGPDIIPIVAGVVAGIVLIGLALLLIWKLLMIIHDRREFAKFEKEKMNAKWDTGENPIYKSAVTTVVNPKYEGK

## HCMV gH/gL/UL128-131 complex of BADrUL131 (from UniProt P12824 24-743; P16832 31-278; P16837 1-171; P16772 1-214)
[1]
  inhibition of BADrUL131 entry into monocytes (internalized vDNA) after pretreatment with 5 µg/ml function blocking anti-β1 integrin antibody: 75%
[2]
  inhibition of BADrUL131 entry into monocytes (internalized vDNA) after pretreatment with 5 µg/ml function blocking anti-β3 integrin antibody: 40%
